Laboratory results as given in patent US20050175724A1, “Composition for modulating a physiological reaction or inducing an immune response” (priority 2002, published 2005).

Legend:
[1] = in vivo; cited from earlier work
[2] = delivered together with deoxycholate; cited from earlier work
proteolytic enzyme = test: In vitro proteolytic enzyme inhibition (casein digestion by intestinal enzyme extract); format: biochemical, rainbow trout; conditions: increasing level of inhibitor inclusion; FIGS. 5-12
Protocol: • 1. Centrifuge Sorvall model • 2. Bench-top blender • 3. Dissecting material (scissors) • 4. Centrifuge bottle • 5. Disposable cuvettes for spectrophotometer • 6. Microcentrifuge tubes 1.5 ml • 7. Spectrophotometer • 8. Vortexer • 9. Microplates reader from Biorad • 10. 50 mM Tris-HCl pH=7.5 • 11. Commassie blue staining solution • 12 BSA (1 mg\ml) standard solution • 13 TCA 20% • 14. Rainbow trouts pancreatic and duodenal tissues • 15.0.5% casein in 50 mM Tris-HCl pH=9 • 16.50 mM Tris-HCl+CaCl2 10 mM pH=7.5 Enzyme Extract • 1. Rainbow trout were weighed and sacrificed. • 2. Dissection was performed to remove the proximal small intestine from the fish. • 3. After weighing, the tissues were homogenised in 50 mM Tris-HCl ph=7.5 (1:10 w\v). • 4. Centrifuge at 16000×g for 30 min at 4° C. • 5. Keep the supernatant. Aliquot and store them at −20 C for further use. • 6. Perform Commassie assay to measure the amount of protein present in the enzyme extract. Commassie Blue Stain Protocol • 1. Weigh 160 mg of BSA in 10 ml of […] Tris-HCl pH=7.5. • 2. […] Read at 655 nm with the microplate reader from Biorad. […] Centrifuge at 12000×g for 5 min and read at 280 nm. […] Centrifuge at 12000×g for 5 min and read at 280 nm. […] Centrifuge at 12000×g for 5 min and read at 280 nm. […] Centrifuge at 12000×g for 5 min and read at 280 nm. […] Centrifuge at 12000×g for 5 min and read at 280 nm. […]

salmonids = conditions: in vivo; cited from earlier work
rainbow trout = test: Growth enhancement, intraperitoneal bST; format: in vivo, Oncorhynchus mykiss; conditions: IP 20 μg bST/g live body weight weekly for 6 weeks
Protocol: Intraperitoneal (IP) administration dose per fish weekly was 20 μg bST/g live body weight for 6 weeks.

Molecule: horseradish peroxidase
- time to transport to the circulation after oral administration [1]: ≤ 1 h

Molecule: recombinant human GH: recombinant human growth hormone
- enhancement of oral absorption [2]: ≤ 1000 fold

B1: lyophylized ovalbumin: individual protease inhibitor component of the Oralject cocktail (protein, UniProt P01012 2-386, looked up)
Ovalbumin: GSIGAASMEFCFDVFKELKVHHANENIFYCPIAIMSALAMVYLGAKDSTRTQINKVVRFDKLPGFGDSIEAQCGTSVNVHSSLRDILNQITKPNDVYSFSLASRLYAEERYPILPEYLQCVKELYRGGLEPINFQTAADQARELINSWVESQTNGIIRNVLQPSSVDSQTAMVLVNAIVFKGLWEKAFKDEDTQAMPFRVTEQESKPVQMMYQIGLFRVASMASEKMKILELPFASGTMSMLVLLPDEVSGLEQLESIINFEKLTEWTSSNVMEERKIKVYLPRMKMEEKYNLTSVLMAMGITDVFSSSANLSGISSAESLKISQAVHAAHAEINEAGREVVGSAEAGVDAASVSEEFRADHPFLFCIKHIATNAVLFFGRCVSP
- in vitro proteolytic enzyme inhibition (proteolytic enzyme): affect to differing degrees

B2: spray-dried ovalbumin: individual protease inhibitor component of the Oralject cocktail (protein, UniProt P01012 2-386, looked up)
Ovalbumin: B1 Ovalbumin
- in vitro proteolytic enzyme inhibition (proteolytic enzyme): affect to differing degrees

B3: bovine GH: bovine growth hormone (protein, UniProt P01246 27-217, looked up)
Somatotropin: AFPAMSLSGLFANAVLRAQHLHQLAADTFKEFERTYIPEGQRYSIQNTQVAFCFSETIPAPTGKNEAQQKSDLELLRISLLLIQSWLGPLQFLSRVFTNSLVFGTSDRVYEKLKDLEEGILALMRELEDGTPRAGQILKQTYDKFDTNMRSDDALLKNYGLLSCFRKDLHKTETYLRVMKCRRFGEASCAF
- increase in growth rate (salmonids): two to three-fold

B4: recombinant bST: recombinant bovine somatotropin (Monsanto Co.) (protein, UniProt P01246 27-217, looked up)
Somatotropin: B3 Somatotropin
- body weight gain (rainbow trout): significantly induces increased body weight gain
